Laboratory results taken from PMC1560149, “The DNA polymerase activity of Pol ε holoenzyme is required for rapid and efficient chromosomal DNA replication in Xenopus egg extracts” (BMC Biochemistry, 2006).

Target: T1, p17 (the fourth subunit of xPol ε complex) (Xenopus, UniProt Q6WSQ3 1-147)
T1 construct: p17 subunit of Xenopus DNA polymerase epsilon, 147 amino acids; also called xPol ε p17; source: sf21 insect cells, baculovirus, co-expressed, in crude extract
T1 sequence (looked up): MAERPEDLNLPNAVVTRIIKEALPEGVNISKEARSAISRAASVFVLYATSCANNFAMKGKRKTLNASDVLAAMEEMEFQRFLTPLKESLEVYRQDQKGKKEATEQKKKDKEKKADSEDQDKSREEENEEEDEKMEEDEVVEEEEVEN
Assay: not stated; data not shown; p12 and p17 in insect cells

B1: p12 (the third subunit of xPol ε complex) (natural protein, Xenopus, UniProt Q0EAE6 1-116, looked up)
chain: MAAEVAAPESLEGSGSQEDAGPSSPPAAHPAPCPSKQARLPLSRIKALMKADPDLSLASQESVFVISKATELFIETIAKDAYLYAQQGKRKTLQRKDLDNAIDAIDEFAFLEGTLD
notes: p12 subunit of Xenopus DNA polymerase epsilon, 116 amino acids; also called xPol ε p12; source: sf21 insect cells, baculovirus, co-expressed, in crude extract
stoichiometry N: 1
